According to IntAct's records for PubMed 17571076:

B1: Mitochondrial protein import protein ZIM17 (Saccharomyces cerevisiae), P42844 (parent)
chain: MIPRTRTLLQSKIPITRYFARCWAPRVRYNVCRTLPAAALHTNIIAHNEVKKDDKKVHLGSFKVDKPKMMIAFTCKKCNTRSSHTMSKQAYEKGTVLISCPHCKVRHLIADHLKIFHDHHVTVEQLMKANGEQVSQDVGDLEFEDIPDSLKDVLGKYAKNNSENASQLPHPSQK

Variants of: B1
Conditions: with hsp77_yeasx SSC1, P0CS91
Chain of hsp77_yeasx SSC1, P0CS91 (P0CS91 whole entry): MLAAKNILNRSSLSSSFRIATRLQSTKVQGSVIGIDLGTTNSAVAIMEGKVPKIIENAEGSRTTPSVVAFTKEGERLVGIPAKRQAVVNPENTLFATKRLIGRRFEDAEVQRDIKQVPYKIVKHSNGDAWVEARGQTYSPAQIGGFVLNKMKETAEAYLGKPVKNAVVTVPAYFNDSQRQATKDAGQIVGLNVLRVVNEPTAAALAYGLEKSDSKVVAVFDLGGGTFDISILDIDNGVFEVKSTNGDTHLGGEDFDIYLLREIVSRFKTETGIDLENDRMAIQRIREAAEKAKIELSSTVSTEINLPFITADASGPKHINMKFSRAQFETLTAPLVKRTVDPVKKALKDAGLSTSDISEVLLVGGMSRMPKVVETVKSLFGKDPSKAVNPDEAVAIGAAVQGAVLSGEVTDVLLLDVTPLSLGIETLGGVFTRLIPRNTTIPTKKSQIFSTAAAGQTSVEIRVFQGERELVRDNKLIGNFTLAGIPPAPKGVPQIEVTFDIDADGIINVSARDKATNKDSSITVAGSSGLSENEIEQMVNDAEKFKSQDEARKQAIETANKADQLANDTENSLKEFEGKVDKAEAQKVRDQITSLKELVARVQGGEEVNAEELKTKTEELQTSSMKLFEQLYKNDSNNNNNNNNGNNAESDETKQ

Row | effect of a mutation on the interaction | Variant
1 | disrupting interaction | R106A
2 | disrupting interaction | H107A

Variants of: B1
Conditions: with hsp77_yeasx SSC1, P0CS91
Remark: another data set of the same source

Row | effect of a mutation on the interaction | Variant
3 | disrupting interaction | D111A
